Measured values taken from US20220220215A1 (CRESCENDO BIOLOGICS, published 2022).
Substitutions are numbered along the chain they refer to. In names and notes the source's numbering stands.

Key:
[1] = target: human CD137 expressed on cells (Jurkat human CD137 NF-kB luciferase reporter cells; human CD8+ T cells) (human, UniProt Q07011 24-255); assay: cell-based or functional assay
[2] = target: T1, biotinylated human CD137-His (human, UniProt Q07011 24-186, biotinylated); assay: SPR, Biacore 8K, multi-cycle kinetics; biotinylated antigen captured on streptavidin chip; 1:1 model
T1 construct: not shown: His tag
Experimental: (§1) Multi cycle kinetics assays were then used to evaluate the kinetics and affinity of the interaction. Experiments were performed at […] in HBS-EP+ assay buffer with a flow rate of 30 μl/minute. A streptavidin chip (Streptavidin (SA), Series S, GE Healthcare BR100531) was used to capture the biotinylated human CD137 or human PD-1 reaching a maximum of 75RU or 200RU respectively. A second flow cell without any captured antigen was used as the reference cell. […] The binding kinetics were followed by flowing these over the chip surface. The contact time for the binding steps was 360 or 180 seconds and the dissociation step was 3600 or 1200 seconds for human CD137 and PD1 respectively. After each run, the sensors were regenerated with glycine pH 1.5 to remove the captured Humabody® VH. The data was fitted to a 1:1 binding model after reference subtraction using the Biacore Evaluation software. Example kinetic and binding affinity data obtained is shown Table 19.

[3] = target: T2, biotinylated human PD-1-His tagged protein (human, UniProt Q15116 25-170, biotinylated); assay: as above
T2 construct: not shown: His tag
Experimental: as §1

[4] = target: T3, recombinant Fc-tagged ectodomain of human CD137 (Acro Biosystems 41B-H5258) (human, UniProt Q07011 24-186); assay: SPR, Biacore 8K, single-cycle kinetics; Fc-tagged ectodomain captured on Protein G chip; 1:1 model
T3 construct: Bought protein; not shown: Fc tag
Experimental: (§2) Binding of Humabody® VH constructs was measured using a single-cycle kinetics method using the BIAcore 8K instrument with 90 second sample injections with a sample concentration range of low nanomolar to high nanomolar. […] The Protein G sensor surface was regenerated with a 20 second injection of 10 mM Glycine buffer, pH 1.5 (GE Healthcare BR100354). Data were analysed using a 1:1 binding model in Biacore Insight Evaluation software, including Humabody® VH constructs with two PD-1 arms.

[5] = target: T4, recombinant Fc-tagged ectodomain of human PD1 (Acro Biosystems PD1-H5257) (human, UniProt Q15116 25-170); assay: as above
T4 construct: Bought protein; not shown: Fc tag
Experimental: as §2

[6] = target: T5, recombinant Fc-tagged ectodomain of cynomolgus CD137 (R&D S9324-4b) (cynomolgus macaque, UniProt A9YYE7 24-186); assay: as above
T5 construct: Bought protein; also called Cyno CD137; cynomolgus macaque CD137; not shown: Fc tag and any linker to it
Experimental: as §2

[7] = target: T6, recombinant Fc-tagged ectodomain of cynomolgus PD1 (Acro Biosystems PD1-C5254) (cynomolgus macaque, UniProt B0LAJ3 25-170); assay: as above
T6 construct: Bought protein; also called Cyno PD1; cynomolgus macaque PD1; not shown: Fc tag and any linker to it
Experimental: as §2

[8] = target: T7, human CD137 expressed on CHO cells (human, UniProt Q07011 18-255); assay: FMAT/Mirrorball on CHO huCD137 cells
T7 construct: also called CHO huCD137; CHO human CD137 cells
How it was run: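 His-tagged VH molecules bound to CHO cells expressing human PD-1 or human CD137, with CHO parent cells as control, in PBS pH 7.4, 0.1% BSA, 0.05% sodium azide. Read by FMAT on Mirrorball (ex 488/640 nm); binding taken as FL2 median fluorescence intensity of FL5-gated events.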

[9] = target: T8, human CD137-Fc recombinant protein (Acro Biosystems 41B-H5258) (human, UniProt Q07011 24-186); assay: BLI (Octet RED384), CD137-Fc on Protein G sensor, 1:1 model
T8 construct: Bought protein; The Octet paragraph gives no catalogue number for its human CD137-Fc; also called hCD137-Fc; CD137-Fc tagged protein
Experimental: (§3) Binding kinetics of purified monovalent VH molecules were measured on a ForteBio Octet RED 384 instrument. Human and Rhesus CD137-Fc tagged protein was diluted to 5 μg/ml in kinetics buffer (0.05% Tween, 1×PBS) and coupled to Protein G biosensors (ForteBio cat no. 18-5082) via the Fc tag. VH were serially diluted (typically 1:2 dilution series starting with 200 nM, VH at the highest concentration) and binding to the CD137-Fc-coupled Protein G biosensors measured. Binding kinetics were determined from the (blank subtracted) sensor gram trace using 1:1 binding models and ForteBio Octet Data Analysis 9.0 software. Example kinetic and binding affinity data obtained is shown Table 18 (monovalent VH).

[10] = target: T9, Rhesus CD137-Fc tagged protein (rhesus, UniProt H9Z8K9 24-186); assay: as above
T9 construct: extracellular domain; The Octet paragraph gives no catalogue number; also called rhCD137-Fc
Experimental: as §3

B1: TPP-1010: PD138G7(G109D)-6GS-HSA2-6GS-CD137D-His (bispecific antibody)
chain: EVQLVESGGGVVRPGGSLRLSCAASGFTFDDYAMSWVRQAPGKGLEWVSGITWNGGSTGYADSVKDRFTISRDNAKNSLYLQMNSLRAEDTALYYCVRDKYSYAWSYDDFDIWGQGTMVTVSSGGGGSGGGGSGGGGSGGGGSGGGGSGGGGSEVQLVESGGGLVKPGGSLRLSCAASGFTFSNYNMNWVRQAPGKGLEWVSSISSAGTHIYYADSVKGRFTISRDNAKNSLYLQMNSLRAEDTAVYYCARDPHSTGWYKDFDYWGQGTLVTVSSGGGGSGGGGSGGGGSGGGGSGGGGSGGGGSEVQLVESGGGVVQPGGSLRLSCAASGFTFSNYGMHWVRQAPGKGLEWVAVISNDGNTKTYADSVKGRFTISRDNSKNTLYLQMNSLRAEDTAVYYCAQDETTTVTASYYFDYWGQGTLVTVSSAAAHHHHHH
- Jurkat-CD137/CHO-PD-1 Reporter Assay EC50 [1]: 2.29 nM
- Kd [2]: 21.1 nM
- koff [2]: 0.00366 s⁻¹
- kon [2]: 173000 M⁻¹ s⁻¹
- Kd [3]: 5.5 nM
- koff [3]: 0.00274 s⁻¹
- kon [3]: 498000 M⁻¹ s⁻¹

B2: TPP-1245 CD137A-6GS-PDA2-6GS-HSA2 (bispecific antibody)
chain: EVQLVESGGGLVQPGGSLRLSCAASGFTLSNYWMNWVRQAPGKGLEWVANINQDGSERYYVDSVKGRFTISRDNAKNSLYLQMNSLRAEDTAVYYCARGGEGYGVDHYGLDVSGQGTTVTVSSGGGGSGGGGSGGGGSGGGGSGGGGSGGGGSEVQLVESGGGVVRPGGSLRLSCAASGFTFDDYAMSWVRQAPGKGLEWVSGITWNAGSTGYADSVKGRFTISRDNAKNSLYLQMNSLRAEDTALYYCVRDKYSYAWSYDDFDIWGQGTMVTVSSGGGGSGGGGSGGGGSGGGGSGGGGSGGGGSEVQLVESGGGLVKPGGSLRLSCAASGFTFSNYNMNWVRQAPGKGLEWVSSISSAGTHIYYADSVKGRFTISRDNAKNSLYLQMNSLRAEDTAVYYCARDPHSTGWYKDFDYWGQGTLVTVSS
- Jurkat-CD137/CHO-PD-1 Reporter Assay EC50 [1]: 0.113 nM
- Kd [4]: 0.471 nM
- koff [4]: 0.000179 s⁻¹
- kon [4]: 381000 M⁻¹ s⁻¹
- Kd [5]: 87.6 nM
- koff [5]: 0.0762 s⁻¹
- kon [5]: 869000 M⁻¹ s⁻¹
- Kd [6]: 0.728 nM
- koff [6]: 0.000263 s⁻¹
- kon [6]: 361000 M⁻¹ s⁻¹
- Kd [7]: 102 nM
- koff [7]: 0.0505 s⁻¹
- kon [7]: 493000 M⁻¹ s⁻¹

B3: TPP-1027: CD137A-6GS-HSA2-6GS-PD138G7(G109D)-His (bispecific antibody)
chain: EVQLVESGGGLVQPGGSLRLSCAASGFTLSNYWMNWVRQAPGKGLEWVANINQDGSERYYVDSVKGRFTISRDNAKNSLYLQMNSLRAEDTAVYYCARGGEGYGVDHYGLDVSGQGTTVTVSSGGGGSGGGGSGGGGSGGGGSGGGGSGGGGSEVQLVESGGGLVKPGGSLRLSCAASGFTFSNYNMNWVRQAPGKGLEWVSSISSAGTHIYYADSVKGRFTISRDNAKNSLYLQMNSLRAEDTAVYYCARDPHSTGWYKDFDYWGQGTLVTVSSGGGGSGGGGSGGGGSGGGGSGGGGSGGGGSEVQLVESGGGVVRPGGSLRLSCAASGFTFDDYAMSWVRQAPGKGLEWVSGITWNGGSTGYADSVKDRFTISRDNAKNSLYLQMNSLRAEDTALYYCVRDKYSYAWSYDDFDIWGQGTMVTVSSAAAHHHHHH
- Jurkat-CD137/CHO-PD-1 Reporter Assay EC50 [1]: 0.238 nM
- Kd [2]: 0.023 nM
- koff [2]: 2.87e-05 s⁻¹
- kon [2]: 1.25e+06 M⁻¹ s⁻¹
- Kd [3]: 5.95 nM
- koff [3]: 0.00246 s⁻¹
- kon [3]: 413000 M⁻¹ s⁻¹

B4: TPP-1028: CD137A-6GS-HSA3-6GS-PD138G7(G109D)-His (bispecific antibody)
chain: EVQLVESGGGLVQPGGSLRLSCAASGFTLSNYWMNWVRQAPGKGLEWVANINQDGSERYYVDSVKGRFTISRDNAKNSLYLQMNSLRAEDTAVYYCARGGEGYGVDHYGLDVSGQGTTVTVSSGGGGSGGGGSGGGGSGGGGSGGGGSGGGGSEVQLLESGGGLVKPGGSLRLSCAASGFTVSSYTMNWVRQAPGKGLEWVSSISSSGRYIYYADSVKGRFTISRDNAKNSLYLQMNSLRAEDTAVYYCARDPRMVGNPHEFDIWGQGTMVTVSSGGGGSGGGGSGGGGSGGGGSGGGGSGGGGSEVQLVESGGGVVRPGGSLRLSCAASGFTFDDYAMSWVRQAPGKGLEWVSGITWNGGSTGYADSVKDRFTISRDNAKNSLYLQMNSLRAEDTALYYCVRDKYSYAWSYDDFDIWGQGTMVTVSSAAAHHHHHH
- Jurkat-CD137/CHO-PD-1 Reporter Assay EC50 [1]: 0.312 nM
- Kd [2]: 0.0281 nM
- koff [2]: 1.9e-05 s⁻¹
- kon [2]: 674000 M⁻¹ s⁻¹
- Kd [3]: 5.83 nM
- koff [3]: 0.00235 s⁻¹
- kon [3]: 403000 M⁻¹ s⁻¹

B5: 003BB172-E01-1 (VHH)
VHH: EVQLVESGGGLVQPGGSLRLSCAASGFTFSNYGMHWVRQAPGKGLEWVAVISNDGNTKTYADSVKGRFTISRDNSKNMLYLQMTSLRTEDTAVYYCAQDETTTVTASYYFDYWGQGTLVTVSS
notes: Human VH single domain antibody, monovalent
- EC50 [8]: 1.35 nM
- Kd [9]: 17.8 nM
- koff [9]: 0.00214 s⁻¹
- kon [9]: 120000 M⁻¹ s⁻¹
- Kd [10]: 21.9 nM
- koff [10]: 0.00267 s⁻¹
- kon [10]: 122000 M⁻¹ s⁻¹

B6: 003BB172-E01-2 (VHH)
VHH: B5 VHH with G44R, M78T
notes: as for B5
- EC50 [8]: 1.74 nM
- Kd [9]: 18.6 nM
- koff [9]: 0.00137 s⁻¹
- kon [9]: 73200 M⁻¹ s⁻¹
- Kd [10]: 25.9 nM
- koff [10]: 0.00159 s⁻¹
- kon [10]: 61300 M⁻¹ s⁻¹

B7: 003BB172-E01-3 (VHH)
VHH: B5 VHH with G44R, T84N
notes: as for B5
- EC50 [8]: 1.06 nM
- Kd [9]: 24.5 nM
- koff [9]: 0.00161 s⁻¹
- kon [9]: 66000 M⁻¹ s⁻¹
- Kd [10]: 24.8 nM
- koff [10]: 0.00157 s⁻¹
- kon [10]: 55300 M⁻¹ s⁻¹

B8: 003BB172-E01-4 (VHH)
VHH: B5 VHH with M78T
notes: as for B5
- EC50 [8]: 1.33 nM
- Kd [9]: 25.7 nM
- koff [9]: 0.00184 s⁻¹
- kon [9]: 71600 M⁻¹ s⁻¹
- Kd [10]: 32.2 nM
- koff [10]: 0.00216 s⁻¹
- kon [10]: 67100 M⁻¹ s⁻¹

B9: TPP-1247 CD137A-6GS-HSA3-6GS-PD138G7(G109D) (bispecific antibody)
chain: EVQLVESGGGLVQPGGSLRLSCAASGFTLSNYWMNWVRQAPGKGLEWVANINQDGSERYYVDSVKGRFTISRDNAKNSLYLQMNSLRAEDTAVYYCARGGEGYGVDHYGLDVSGQGTTVTVSSGGGGSGGGGSGGGGSGGGGSGGGGSGGGGSEVQLLESGGGLVKPGGSLRLSCAASGFTVSSYTMNWVRQAPGKGLEWVSSISSSGRYIYYADSVKGRFTISRDNAKNSLYLQMNSLRAEDTAVYYCARDPRMVGNPHEFDIWGQGTMVTVSSGGGGSGGGGSGGGGSGGGGSGGGGSGGGGSEVQLVESGGGVVRPGGSLRLSCAASGFTFDDYAMSWVRQAPGKGLEWVSGITWNGGSTGYADSVKDRFTISRDNAKNSLYLQMNSLRAEDTALYYCVRDKYSYAWSYDDFDIWGQGTMVTVSS
- Jurkat-CD137/CHO-PD-1 Reporter Assay EC50 [1]: 0.0583 nM
- Kd [4]: 0.295 nM
- koff [4]: 9.85e-05 s⁻¹
- kon [4]: 334000 M⁻¹ s⁻¹
- Kd [5]: 7.77 nM
- koff [5]: 0.00214 s⁻¹
- kon [5]: 276000 M⁻¹ s⁻¹
- Kd [6]: 0.543 nM
- koff [6]: 0.00017 s⁻¹
- kon [6]: 313000 M⁻¹ s⁻¹
- Kd [7]: 16.9 nM
- koff [7]: 0.00494 s⁻¹
- kon [7]: 293000 M⁻¹ s⁻¹
